# Measured values taken from patent publication US20110229463A1 (SYMPHOGEN A S, published 2011).
# Substitutions are numbered along the chain they refer to.
# B1: Fab fragment of antibody 1030 (Fab, V domains shown, not shown: small tags and cut ends)
# VH: EVQLVESGGGLVKPGGSLKLSCAASGFTFSSYALSWVRQTPERRLEWVASISGVGSTYFPDSVKGRFTMSRDNARNILYLQMSSLRSEDTAMYYCARGSDGYFYAMDYWGQGTSVTVS
# VL: DIVLTQSPASLAVSLGQRATISCRASKSVSTSGYSFMHWYQLKPGQPPKLLIYLASNLESGVPARFSGSGSGTDFTLNIHPVEEEDAATYYCQHSREFPLTFGGGTKLEIKR
# B2: antibody 1260 (antibody, human IgG1, kappa, V domains shown)
# VH: QVQLKESGPGLVAPSQSLSITCTVSGFSLTTYGVHWVRQPPGKGLEWLGVIWAGGSTNYNSALMSRLSIKKDNSKSQVFLKMNSLQTDDTAMYYCARAYGYNFDYWGQGTTLTVSS
# VL: DIQMTQTTSSLSASLGDRVTISCSASQGITNYLNWYQQKPDGTVKLLIYYSSSLHSGVPSRFSGSGSGTDYSLTISNLEPEDIATYYCQQYSEIPYTFGGGTKLELKR
# notes: Chimeric mouse/human IgG1 kappa
# B3: antibody 1320 (antibody, human IgG1, kappa, V domains shown)
# VH: QVQLQQPGAELVKPGASMKLSCKASGYTFTNYWMHWVKQRPGQGLEWIGEINPSNGRTNYNEKFKSKATLTVDKSSSTAYMQLSSLTSEDSGVYYCAKGGNYYDYDWDYWGQGTTLTVSS
# VL: B2 VL with G28D, T30S, Y50H, S51T, S53T, E93K, I94L, Y96W, L106I
# notes: as for B2
# B4: Fab fragment of antibody 1024 (Fab, V domains shown, not shown: small tags and cut ends)
# VH: QVQLQQPGAELVEPGGSVKLSCKASGYTFTSHWMHWVKQRPGQGLEWIGEINPSSGRNNYNEKFKSKATLTVDKSSSTAYMQFSSLTSEDSAVYYCVRYYGYDEAMDYWGQGTSVTVS
# VL: DIVMTQAAFSNPVTLGTSASISCRSSKSLLHSNGITYLYWYLQKPGQSPQLLIYQMSNLASGVPDRFSSSGSGTDFTLRISRVEAEDVGVYYCAQNLELPYTFGGGTKLEIKR
# B5: Fab fragment of antibody 992 (Fab, V domains shown, not shown: small tags and cut ends)
# VH: EVQLQQPGSELVRPGASVKLSCKASGYTFTSYWMHWVKQRPGQGLEWIGNIYPGSRSTNYDEKFKSKATLTVDTSSSTAYMQLSSLTSEDSAVYYCTRNGDYYVSSGDAMDYWGQGTSVTVS
# VL: DIQMTQTTSSLSASLGDRVTISCRTSQDIGNYLNWYQQKPDGTVKLLIYYTSRLHSGVPSRFSGSGSGTDFSLTINNVEQEDVATYFCQHYNTVPPTFGGGTKLEIKR
# B6: antibody 1347 (antibody, human IgG1, kappa, V domains shown)
# VH: QVQLKESGPGLVAPSQSLSITCTVSGFSLTGHGVNWVRQPPGKGLEWLGMIWGDGSTDYNSTLKSRLSISKDNSKSQVFLKMNSLQTDDTARYYCARGYGYLYYFDYWGQGTTLTVSS
# VL: ENVLTQSPAIMSASPGEKVTMTCRASSSVSSSYLHWYQQKSGASPKLWIYSTSNLASGVPARFSGSGSGTSYSLTVNSVETEDAATYYCHQYSGFPFTFGSGTKLELKR
# notes: as for B2
# B7: antibody 1254 (antibody, human IgG1, kappa, V domains shown)
# VH: EVQLVESGGGLVKPGGSLKLSCAASGFAYSTYDMSWVRQTPEKRLEWVAYISSGGDAAYYPDTVKGRFTISRDNAKNTLYLQMSSLKSEDTAMYYCARSRYGNYGDAMDYWGQGTSVTVSS
# VL: DVVMTQTPLSLPVSLGDQASISCRSSQSLVHSNGNTYLHWYLQKPGQSPKLLLYKVSNRFSGVPDRFSGSGSGTDFTLKISRVESEDLGVYFCSQNTHVYTFGGGTKLEIKR
# notes: Chimeric mouse/human IgG1 kappa; also called mAb 1254
# B8: antibody 1024 (antibody, human IgG1, kappa, V domains shown)
# VH: QVQLQQPGAELVEPGGSVKLSCKASGYTFTSHWMHWVKQRPGQGLEWIGEINPSSGRNNYNEKFKSKATLTVDKSSSTAYMQFSSLTSEDSAVYYCVRYYGYDEAMDYWGQGTSVTVSS
# VL: B4 VL
# notes: as for B2
# B9: antibody 992 (antibody, human IgG1, kappa, V domains shown)
# VH: EVQLQQPGSELVRPGASVKLSCKASGYTFTSYWMHWVKQRPGQGLEWIGNIYPGSRSTNYDEKFKSKATLTVDTSSSTAYMQLSSLTSEDSAVYYCTRNGDYYVSSGDAMDYWGQGTSVTVSS
# VL: B5 VL
# notes: Chimeric mouse variable / human IgG1 kappa; the light chain entry includes the human kappa constant region; the end of the range is counted on the printed entry
# B10: antibody 1261 (antibody, human IgG1, kappa, V domains shown)
# VH: EVQLVESGGGLVKPGGSLKLSCAVSGFTFSSYVMSWVRQTPEKRLEWVATITSGGRNIYYLDSVKGRFTISRDNAKNTLYLQMSSLRSEDTAMYYCARHEDYRYDGYYAMDYWGQGTSVTVSS
# VL: QIVLTQSPAIMSASPGEKVTITCSASSSVSYMHWFQQKPGTSPKLWIYSTSNLASGVPARFSGSGSGTSYSLTISRMEAEDAATYYCQQRSSYPYTFGGGTKLELKR
# notes: as for B2
# B11: antibody 1030 (antibody, human IgG1, kappa, V domains shown)
# VH: EVQLVESGGGLVKPGGSLKLSCAASGFTFSSYALSWVRQTPERRLEWVASISGVGSTYFPDSVKGRFTMSRDNARNILYLQMSSLRSEDTAMYYCARGSDGYFYAMDYWGQGTSVTVSS
# VL: B1 VL
# notes: as for B2
# B12: antibody 1284 (antibody, human IgG1, kappa, V domains shown)
# VH: QVQLQQPGAELVKPGASVKLSCKASGYTFTSDWMHWMKQRPGQGLEWIGEINPSNGRSSYNEKFKSKATLTVDKSSSTAYMQLSSLTSEDSAVYYCARIGGIYVETYWGQGTLVTVSS
# VL: DIVLTQSPASLAVSLGQRATISCRASQSVSTSTYSYMHWYQQKSGQPPKLLIKYASNLESGVPARFSGSGSGTDFTLNIHPVEEEDTATYYCQHSWEIPWTFGGGTKLEIKR
# notes: as for B2
# Target: T1, Wild type full length EGFR purified from A431 cells (human, UniProt P00533 25-1210)
# T1 construct: mature; purified from cells and coated on ELISA wells; also called purified full length EGFR; Sigma E3641
# Experiment: indirect ELISA, Fab on coated purified full length EGFR, anti-human Fab HRP
row,EC50 (read off the curve) [nM],Binder
1,~5,B1

# Target: T1, Wild type full length EGFR purified …
# Experiment: ELISA: antibody titrated on coated full length EGFR, then biotinylated EGF (blocked ligand), streptavidin-HRP
# Experimental: The next morning wells were washed twice with PBS-T and blocked for one hour with 150 μl PBS-T-1% BSA at room temperature, followed by wash twice in PBS-T. Next 80 μl of serially diluted Anti-EGFR antibodies and control antibodies were added to wells and incubated 30 min at room temperature. […] Subsequently wells were washed five times with PBS-T, followed by incubation with 100 μl/well Streptavidin-HRP secondary reagent diluted 1:1000 in blocking buffer and incubation at room temperature for 30 min. Finally wells were washed five times with PBS-T and plates were developed by adding 100 μL/well TMB substrate and incubated for 60 min. After incubation the reaction was stopped by addition of 1 M H₂SO₄; 100 μl/well and plates were read at OD 450 nm.
row,IC50 (read off the curve) [ng mAb/ml],Binder
1,~40,B2
2,~20,B3

# Target: T2, EGFR-Fc (recombinant EGFR ECD-Fc chimera, R&D Systems 344-ER) (human, UniProt P00533 25-645)
# T2 construct: Bought; also called immobilized Human EGFR ECD; not shown: Human IgG Fc
# Experiment: SPR (Biacore 2000): EGFR ECD-Fc immobilised on CM5, Fab injected
# Experimental: To investigate possible differences in antigen presentation between EGFR ECD presented in soluble and immobilized form, a new affinity measurement on an immobilized chimeric EGFR receptor antigen termed EGFR-Fc (R&D Systems, 344-ER), consisting of Human EGFR ECD fused to Human IgG Fc was performed.
row,t1/2 [min],Binder
1,2.3,B4
2,0.2,B5
3,57.5,B1

# Target: T3, recombinant human EGFR extracellular domain with 6xHis (human, UniProt P00533 25-645)
# T3 construct: In-house protein; also called 6xHis EGFR ECD; soluble human EGFR ECD; not shown: 6xHis tag
# Experiment: SPR (BIAcore 2000): IgG captured by anti-human Fc, soluble EGFR ECD injected
# Experimental: Kinetic analysis of the full length IgG antibodies of the invention was performed on a BIAcore 2000, employing an assay as described in (Canziani, Klakamp, et al. 2004, Anal. Biochem, 325:301-307) allowing measurement of monovalent affinities of whole IgG molecules against soluble antigen. […] The chip surface was regenerated in between cycles by stripping the captured antibody/antigen complexes with a 10 second injection of 100 mM H₃PO₄. […] The association rate constant (ka) and dissociation constant (kd) were evaluated globally from the generated sensograms with the BIA evaluation software 4.1 provided by the manufacturer.
row,t1/2 [min],Binder
1,74.1,B2
2,4.1,B3
3,22.9,B6
4,11.3,B7
5,2.4,B8
6,0.2,B9
7,3.6,B10
8,31.1,B11
9,78.1,B12

# Target: T3, recombinant human EGFR extracellular …
# Experiment: SPR; EGFR ECD saturated with mix N=6: 1261+1347+992+1024+1030+1361
# Experimental: SPR analysis was performed on a Biacore 3000 machine containing four flow cells. A CM5 Biacore chip was conjugated with 10,000 Resonance units (Ru) polyclonal anti-His antibody to flow cells 1-4 according to the manufacturer's instructions. […] Immediately after antigen injection the maximal binding of the Anti-EGFR mAb without competition was established in each flow cell during a reference run. Briefly 5 μl antibody at a concentration of 40 μg/ml was injected over all flow cells with captured EGFR followed by stripping of the antibody/antigen complex with a low pH acid wash (10 sec. contact time with 10 mM Glycine-HCl, pH2). After the determination of Anti-EGFR antibody maximal binding to each flow cell, a competition run was performed during the same Biacore cycle. Flow cells were first saturated with EGFR ECD antigen followed by injection of different reference antibodies or Anti-EGFR antibodies into separate flow cells using the same antigen saturating conditions as outlined above. This step was immediately followed by a second injection of Anti-EGFR antibody over the flow cell saturated with EGFR antigen and competition antibody to minimize the dissociation of either antigen or blocking antibody. Then the antibody/antigen complexes were stripped off with a low pH acid wash (10 sec. contact time with 10 mM Glycine-HCl, pH 2) and the whole cycle beginning with the reference run was repeated with a new Anti-EGFR antibody. The degree of inhibition of tested Anti-EGFR antibodies were determined by comparing the Ru max value of the individual Anti-EGFR antibody before and after competition by introduction of report points recorded two seconds before and after injection of each sample.
row,Inhibition Sample mAb [%],Binder
1,80,B6
2,113,B8
3,116,B9
4,95,B10
5,87,B11

# Target: T4, human EGFR expressed on cells (human, UniProt P00533 25-1210)
# T4 construct: whole, on cells; also called EGFR on A431-NS cells; full length Human EGFR on transfected CHO cells
# Experiment: cell ELISA on A431-NS cells (Fab ED50) against SPR KD
row,fold difference of the monovalent functional affinity on cells against the value tested with BIAcore [fold],Binder
1,15,B5

# Target: T2, EGFR-Fc (recombinant EGFR ECD-Fc …)
# Experiment: SPR, Fab on immobilised EGFR ECD-Fc against IgG with soluble EGFR ECD
row,fold higher affinity against immobilized antigen as compared to soluble receptor [fold],Binder
1,10,B1
